Measurements from the supplement of paper PMC10567573.

B1: ATL3 (parent)
chain: HFKKTKKMGGKDFSFRYQQELEEE

Variants of: B1
Assay: protein stability index of a GFP-peptide fusion (GPS, HEK-293T) (PSI 1-6); higher = more stable
Conditions: c terminus: a fixed tail appended
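Also: lentivirally expressed fusions sorted by FACS into six bins by GFP to DsRed ratio, PSI derived from sequencing read proportions per bin multiplied by bin number.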

Question: For HFKKTKKMGGKYFSFRYQQELEEE [D12Y], which protein stability index is on record?
Answer: 2.32

Question: Which protein stability index does the source give for HFKKTKKMGGKDFSFRYQQELESE [E23S] here?
Answer: 2.2

Question: For HFKKTKKMGGKDFSFRYQQELEQE [E23Q], which protein stability index is on record?
Answer: 1.81

Question: For HFKKTKKMGGKDFSFRYQQELEPE [E23P], which protein stability index is on record?
Answer: 4.12

Question: With HFKKTKKMGGKDFSFRYQQELECE [E23C] as the variant, how does the protein stability index read?
Answer: 3.01

Question: With HFKKTKKMGGKDFSFRYQQELEGE [E23G] as the variant, how does the protein stability index read?
Answer: 1.88

Question: With HFKKTKKMGGKDFSFRYQQELEDE [E23D] as the variant, how does the protein stability index read?
Answer: 2.42

Question: With HFKKTKKMGGKDFSFRYQQELENE [E23N] as the variant, how does the protein stability index read?
Answer: 2.67

Question: With HFKKTKKMGGKDFSFRYQQELEVE [E23V] as the variant, how does the protein stability index read?
Answer: 2.27

Question: With HFKKTKKMGGKDFSFRYQQELELE [E23L] as the variant, how does the protein stability index read?
Answer: 2.22

Question: Which protein stability index does the source give for HFKKTKKMGGKDFSFRYQQELEIE [E23I] here?
Answer: 1.97

Question: Which protein stability index does the source give for HFKETKKMGGKDFSFRYQQELEEE [K4E] here?
Answer: 1.6

Question: With HFKGTKKMGGKDFSFRYQQELEEE [K4G] as the variant, how does the protein stability index read?
Answer: 2.67

Question: With HFKHTKKMGGKDFSFRYQQELEEE [K4H] as the variant, how does the protein stability index read?
Answer: 2.1

Question: Which protein stability index does the source give for HFKNTKKMGGKDFSFRYQQELEEE [K4N] here?
Answer: 2.26

Question: Which protein stability index does the source give for HFKLTKKMGGKDFSFRYQQELEEE [K4L] here?
Answer: 2.6

Question: With HFKITKKMGGKDFSFRYQQELEEE [K4I] as the variant, how does the protein stability index read?
Answer: 1.66

Question: For HFKATKKMGGKDFSFRYQQELEEE [K4A], which protein stability index is on record?
Answer: 2.72

Question: Which protein stability index does the source give for HFKKTKKMGSKDFSFRYQQELEEE [G10S] here?
Answer: 3.53

Question: For HFKKTKKMGHKDFSFRYQQELEEE [G10H], which protein stability index is on record?
Answer: 2.19

Question: For HFKKTKKMGVKDFSFRYQQELEEE [G10V], which protein stability index is on record?
Answer: 2.04

Question: Which protein stability index does the source give for HFKKTKKMGIKDFSFRYQQELEEE [G10I] here?
Answer: 1.68

Question: Which protein stability index does the source give for HFKKTKKMGTKDFSFRYQQELEEE [G10T] here?
Answer: 1.61

Question: Which protein stability index does the source give for HFKKTKKMGKKDFSFRYQQELEEE [G10K] here?
Answer: 2.56

Question: For HFKKTKKMGAKDFSFRYQQELEEE [G10A], which protein stability index is on record?
Answer: 1.75

Question: Which protein stability index does the source give for HFKKTKKMGEKDFSFRYQQELEEE [G10E] here?
Answer: 5.39

Question: Which protein stability index does the source give for HFKKTKKMGGKDFSERYQQELEEE [F15E] here?
Answer: 1.39

Question: For HFKKTKKMGGKDFSIRYQQELEEE [F15I], which protein stability index is on record?
Answer: 1.42

Question: For HFKKTKKMGGKDFSLRYQQELEEE [F15L], which protein stability index is on record?
Answer: 2.46

Question: Which protein stability index does the source give for HFKKTKKMGGKDFSDRYQQELEEE [F15D] here?
Answer: 1.76

Question: With HFKKTKKMGGKDFSARYQQELEEE [F15A] as the variant, how does the protein stability index read?
Answer: 2.54

Question: Which protein stability index does the source give for HFKKTKKMGGKDFSCRYQQELEEE [F15C] here?
Answer: 3.07

Question: For HFKKTKKMGGKDFSRRYQQELEEE [F15R], which protein stability index is on record?
Answer: 1.83

Question: For HFKKTKKMGGKDFEFRYQQELEEE [S14E], which protein stability index is on record?
Answer: 1.53

Question: With HFKKTKKMGGKDFVFRYQQELEEE [S14V] as the variant, how does the protein stability index read?
Answer: 2.17

Question: For HFKKTKKMGGKDFMFRYQQELEEE [S14M], which protein stability index is on record?
Answer: 2.91

Question: Which protein stability index does the source give for HFKKTKKMGGKDFDFRYQQELEEE [S14D] here?
Answer: 4.48

Question: For HFKKTKKMGGKDFPFRYQQELEEE [S14P], which protein stability index is on record?
Answer: 3.12

Question: Which protein stability index does the source give for HFKKTKKMGGKDFWFRYQQELEEE [S14W] here?
Answer: 4.01

Question: For HFKKTKKMGGKDFNFRYQQELEEE [S14N], which protein stability index is on record?
Answer: 4.1

Question: For HFKKTKAMGGKDFSFRYQQELEEE [K7A], which protein stability index is on record?
Answer: 2.02

Question: For HFKKTKPMGGKDFSFRYQQELEEE [K7P], which protein stability index is on record?
Answer: 2.56

Question: For HFKKTKTMGGKDFSFRYQQELEEE [K7T], which protein stability index is on record?
Answer: 1.9

Question: Which protein stability index does the source give for HFKKTKGMGGKDFSFRYQQELEEE [K7G] here?
Answer: 1.8

Question: For HFKKTKVMGGKDFSFRYQQELEEE [K7V], which protein stability index is on record?
Answer: 1.84

Question: With HFKKTKLMGGKDFSFRYQQELEEE [K7L] as the variant, how does the protein stability index read?
Answer: 2.1

Question: Which protein stability index does the source give for HFKKTCKMGGKDFSFRYQQELEEE [K6C] here?
Answer: 2.15

Question: For HFKKTIKMGGKDFSFRYQQELEEE [K6I], which protein stability index is on record?
Answer: 1.37

Question: For HFKKTSKMGGKDFSFRYQQELEEE [K6S], which protein stability index is on record?
Answer: 1.81

Question: Which protein stability index does the source give for HFKKTWKMGGKDFSFRYQQELEEE [K6W] here?
Answer: 1.51

Question: Which protein stability index does the source give for HFKKTQKMGGKDFSFRYQQELEEE [K6Q] here?
Answer: 2.39

Question: Which protein stability index does the source give for HFKKTYKMGGKDFSFRYQQELEEE [K6Y] here?
Answer: 2.38

Question: With HFKKTNKMGGKDFSFRYQQELEEE [K6N] as the variant, how does the protein stability index read?
Answer: 2.15

Question: With HFKKTFKMGGKDFSFRYQQELEEE [K6F] as the variant, how does the protein stability index read?
Answer: 3.58

Question: With HFKKTKKMGGKDFSFRYQQWLEEE [E20W] as the variant, how does the protein stability index read?
Answer: 2

Question: For HFKKTKKMGGKDFSFRYQQFLEEE [E20F], which protein stability index is on record?
Answer: 3.58

Question: For HFKKTKKMGGKDFSFRYQQVLEEE [E20V], which protein stability index is on record?
Answer: 2.51

Question: For HFKKTKKMGGKDFSFRYQQKLEEE [E20K], which protein stability index is on record?
Answer: 4.17

Question: For HFKKTKKMGGKDFSFRYQQCLEEE [E20C], which protein stability index is on record?
Answer: 4.73

Question: With HFKKTKKMGGKDFSFRYQQQLEEE [E20Q] as the variant, how does the protein stability index read?
Answer: 2.91

Question: With HFKKTKKMGGKDFSFRYQQILEEE [E20I] as the variant, how does the protein stability index read?
Answer: 3.47

Question: Which protein stability index does the source give for HFKKTKKMGGADFSFRYQQELEEE [K11A] here?
Answer: 2.69

Question: For HFKKTKKMGGEDFSFRYQQELEEE [K11E], which protein stability index is on record?
Answer: 1.2

Question: For HFKKTKKMGGCDFSFRYQQELEEE [K11C], which protein stability index is on record?
Answer: 2.17

Question: With HFKKTKKMGGFDFSFRYQQELEEE [K11F] as the variant, how does the protein stability index read?
Answer: 1.24

Question: Which protein stability index does the source give for HFKKTKKMGGPDFSFRYQQELEEE [K11P] here?
Answer: 2.06

Question: Which protein stability index does the source give for HFKKTKKMGGSDFSFRYQQELEEE [K11S] here?
Answer: 2.4

Question: For HFKKTKKMGGNDFSFRYQQELEEE [K11N], which protein stability index is on record?
Answer: 1.78

Question: Which protein stability index does the source give for HFKKTKKMGGKDFSFRYQQELQEE [E22Q] here?
Answer: 1.59

Question: Which protein stability index does the source give for HFKKTKKMGGKDFSFRYQQELYEE [E22Y] here?
Answer: 2.15

Question: For HFKKTKKMGGKDFSFRYQQELLEE [E22L], which protein stability index is on record?
Answer: 1.99

Question: Which protein stability index does the source give for HFKKTKKMGGKDFSFRYQQELDEE [E22D] here?
Answer: 2.2

Question: Which protein stability index does the source give for HFKKTKKMGGKDFSFRYQQELFEE [E22F] here?
Answer: 1.85

Question: For HFKKTKKMGGKDFSFRYQQELWEE [E22W], which protein stability index is on record?
Answer: 1.3

Question: With HFKKTKKMGGKDFSFRYQQELMEE [E22M] as the variant, how does the protein stability index read?
Answer: 1.8

Question: For HFKKTKKMGGKDFSFRYQQELPEE [E22P], which protein stability index is on record?
Answer: 3.31

Question: With HFKKTKKMGGKDFSFRYQIELEEE [Q19I] as the variant, how does the protein stability index read?
Answer: 1.46

Question: For HFKKTKKMGGKDFSFRYQNELEEE [Q19N], which protein stability index is on record?
Answer: 4.01

Question: With HFKKTKKMGGKDFSFRYQGELEEE [Q19G] as the variant, how does the protein stability index read?
Answer: 3.99

Question: Which protein stability index does the source give for HFKKTKKMGGKDFSFRYQSELEEE [Q19S] here?
Answer: 2.5

Question: Which protein stability index does the source give for HFKKTKKMGGKDFSFRYQVELEEE [Q19V] here?
Answer: 2.92

Question: With HFKKTKKMGGKDFSFRYQHELEEE [Q19H] as the variant, how does the protein stability index read?
Answer: 2.38

Question: Which protein stability index does the source give for HFKKTKKMGGKDFSFRYQTELEEE [Q19T] here?
Answer: 2.21

Question: Which protein stability index does the source give for HFKKTKKMGGKDFSFRYQPELEEE [Q19P] here?
Answer: 3.56

Question: With HFKKTKKMGGKDFSFRYQEELEEE [Q19E] as the variant, how does the protein stability index read?
Answer: 2.45

Question: Which protein stability index does the source give for HFKKTKKMGGKDFSFRYQDELEEE [Q19D] here?
Answer: 3.36

Question: With HFKKTKKMGGKDFSFRWQQELEEE [Y17W] as the variant, how does the protein stability index read?
Answer: 2.61

Question: For HFKKTKKMGGKDFSFRGQQELEEE [Y17G], which protein stability index is on record?
Answer: 4.68

Question: Which protein stability index does the source give for HFKKTKKMGGKDFSFRHQQELEEE [Y17H] here?
Answer: 3.72

Question: With HFKKTKKMGGKDFSFRTQQELEEE [Y17T] as the variant, how does the protein stability index read?
Answer: 2.38

Question: With HFKKTKKMGGKDFSFRNQQELEEE [Y17N] as the variant, how does the protein stability index read?
Answer: 5.28

Question: With HFKKTKKMGGKDFSFRRQQELEEE [Y17R] as the variant, how does the protein stability index read?
Answer: 5.25

Question: With HFKKTKKMGGKDFSFREQQELEEE [Y17E] as the variant, how does the protein stability index read?
Answer: 5.02

Question: With HFKKTKKMGGKDFSFRPQQELEEE [Y17P] as the variant, how does the protein stability index read?
Answer: 4.68
